We go through three substances from paper PMC6563293.

The subject of the series is MBP::P1 (Wheat streak mosaic virus (isolate Sidney 81)). Briefly: EMSA. In general terms: In EMSA bound probe runs differently from free probe, usually more slowly.

Where two headings read alike, the source gives them in different places.

As for 21-nt GFP ds-siRNA, the K half (5' phosphate) is 0.03 nmol.

In turn, 24-nt GFP ds-siRNA yielded a K half (5' phosphate) of 0.03 nmol. Substance 180-nt GFP dsRNA returned a K half of 0.03 nmol.
